T1: UHRF1^PHD (Homo sapiens, UniProt Q96T88)
T1 sequence (Q96T88 298-366): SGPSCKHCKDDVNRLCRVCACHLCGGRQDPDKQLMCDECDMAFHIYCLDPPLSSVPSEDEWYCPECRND

T2: GST-UHRF1^PHD (residues 298-366) (human (by the printed accession), UniProt Q96T88-1 298-366)
T2 sequence (looked up): T1 sequence (Q96T88 298-366)

T3: UHRF1^TTD-PHD (His-tagged TTD-PHD domains of UHRF1; residues 133-366) (human (by the printed accession), UniProt Q96T88-1 133-366)
T3 sequence (looked up): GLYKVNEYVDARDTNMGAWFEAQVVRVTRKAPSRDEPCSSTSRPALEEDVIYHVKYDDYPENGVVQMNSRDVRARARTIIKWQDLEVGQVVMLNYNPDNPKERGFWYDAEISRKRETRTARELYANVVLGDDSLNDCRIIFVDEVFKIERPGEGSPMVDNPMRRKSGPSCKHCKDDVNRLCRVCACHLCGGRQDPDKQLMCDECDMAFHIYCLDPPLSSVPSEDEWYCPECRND

T4: UHRF1^TTD (TTD construct alone; residues 127-285) (human (by the printed accession), UniProt Q96T88-1 127-285)
T4 sequence (looked up): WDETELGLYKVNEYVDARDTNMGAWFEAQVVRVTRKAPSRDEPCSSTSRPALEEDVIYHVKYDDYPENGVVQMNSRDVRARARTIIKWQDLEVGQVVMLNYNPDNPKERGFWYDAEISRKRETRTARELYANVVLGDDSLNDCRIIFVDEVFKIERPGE

T5: Full-length UHRF1 (N-terminal 6xHis tag) (human (by the printed accession), UniProt Q96T88-1 1-793)
T5 sequence (looked up): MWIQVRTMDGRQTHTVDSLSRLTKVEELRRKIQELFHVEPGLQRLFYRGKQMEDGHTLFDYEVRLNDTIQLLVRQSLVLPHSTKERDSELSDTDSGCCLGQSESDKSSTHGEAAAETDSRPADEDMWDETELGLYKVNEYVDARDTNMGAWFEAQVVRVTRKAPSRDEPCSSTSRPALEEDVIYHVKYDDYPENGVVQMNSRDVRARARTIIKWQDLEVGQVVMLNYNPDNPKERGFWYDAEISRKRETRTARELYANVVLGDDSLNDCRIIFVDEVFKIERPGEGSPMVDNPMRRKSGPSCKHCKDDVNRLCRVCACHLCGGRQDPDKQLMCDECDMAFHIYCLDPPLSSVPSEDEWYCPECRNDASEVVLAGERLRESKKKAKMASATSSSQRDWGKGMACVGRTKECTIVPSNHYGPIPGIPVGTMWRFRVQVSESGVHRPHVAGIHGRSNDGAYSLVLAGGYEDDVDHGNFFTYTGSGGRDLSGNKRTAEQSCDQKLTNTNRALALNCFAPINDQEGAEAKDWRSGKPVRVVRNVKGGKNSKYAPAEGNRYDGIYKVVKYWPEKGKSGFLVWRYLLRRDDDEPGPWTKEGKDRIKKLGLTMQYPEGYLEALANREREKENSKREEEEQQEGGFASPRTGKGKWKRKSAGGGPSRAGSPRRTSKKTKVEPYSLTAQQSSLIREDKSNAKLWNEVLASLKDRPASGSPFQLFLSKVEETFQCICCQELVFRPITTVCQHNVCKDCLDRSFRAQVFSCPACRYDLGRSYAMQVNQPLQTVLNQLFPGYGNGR

B1: GST-UHRF1^(PHD; 337A) (domain or fragment, human (by the printed accession), UniProt Q96T88-1 298-366, looked up)
chain: T1 sequence (Q96T88 298-366) with D40A
B2: Unmodified H3^(FAM) peptide (ARTKQTARKSTGG{K-FAM}) (peptide)
peptide: ARTKQTARKSTGGK(FAM)

Substitutions are numbered along the chain they refer to. Where no end group is shown, it is not given here. FAM = fluorescein

One assay deals with T1, UHRF1^PHD. Briefly: Intrinsic tryptophan. The assay is classed as binding. The note with it: 5 μM peptide, 1 μM UHRF1^PHD.
Assay [1] concerns the target UHRF1^PHD (as used for tryptophan fluorescence) (human (by the printed accession)). Kind of assay: intrinsic tryptophan fluorescence quenching.
The target of assay [2] is B2. Kind of assay: fluorescence polarisation. In general terms: Polarisation of emitted light reports the rotation of a fluorescent probe.
Assay [3] concerns the target T2, GST-UHRF1^PHD (residues 298-366). Kind of assay: fluorescence polarisation.
Assay [4] has as its target T3, UHRF1^TTD-PHD (His-tagged TTD-PHD …). Briefly: fluorescence polarisation.
For assay [5] the target is unchanged. Kind of assay: AlphaScreen or HTRF. (In general: Alpha assays give light when donor and acceptor beads are brought close together.)
The target of assay [6] is T4, UHRF1^TTD (TTD construct alone; …). Kind of assay: fluorescence polarisation.
Assay [7] addresses T5, Full-length UHRF1 (N-terminal 6xHis tag). Briefly: fluorescence polarisation.
In assay [8] the target is T3, UHRF1^TTD-PHD (His-tagged TTD-PHD …). Briefly: fluorescence polarisation. This is another data set of the same source.

In the case of “ARTKQTAR{K-me3}STGG{K-FAM} [H3K9me3^(FAM)]”, on UHRF1^PHD, the “W358 tryptophan fluorescence quenching of UHRF1^PHD” value is ~ 50%.

In assay [1], “H3K9me3^(FAM) peptide (ARTKQTAR{K-me3}STGG{K-FAM})” returned a percent quenching of W358 fluorescence of 50%.

B1: the “fold impairment of binding against GST-UHRF1^PHD” value in [2] was ~12 fold.

As for B2, the binding result in assay [3] and in assay [4] was “binds” in each case.

Regarding ARTKQTARKSTGGKW (trimethyl-lysine at K9) [H3K9me3 peptide (unlabeled; ARTKQTAR{K-me3}STGGKW)], the binding result in [5] is listed as “binds”.

ARTKQTARKSTGGKW (trimethyl-lysine at K9; biotin on K14) [H3K9me3^(Biotin) peptide (ARTKQTAR{K-me3}STGG{K-biotin}W)]: in assay [5], the binding result is on record as “binds”.

On to {FAM}-GKGKWKRKSAGGGPS [PBR^(FAM) peptide ({G-FAM}KGKWKRKSAGGGPS; UHRF1 polybasic region, residues 643-657)], for which the binding result in [6] is “binds”.

As to ARTKQTARKSTGGK (trimethyl-lysine at K9; FAM (fluorescein) on K14) [H3K9me3^(FAM) peptide (ARTKQTAR{K-me3}STGG{K-FAM})], the binding result in assay [6], in assay [7] and in [8] was “binds” in each case.
